The values below come from article doi:10.1101/2021.04.27.441644.

The test concerns the target filamentous actin (F-actin) (rabbit) (UniProt P68135). The test can be described thus: co-sedimentation.

CLIP-170 N-terminal fragment H2 (H2 1-481), sequence (P30622 1-481): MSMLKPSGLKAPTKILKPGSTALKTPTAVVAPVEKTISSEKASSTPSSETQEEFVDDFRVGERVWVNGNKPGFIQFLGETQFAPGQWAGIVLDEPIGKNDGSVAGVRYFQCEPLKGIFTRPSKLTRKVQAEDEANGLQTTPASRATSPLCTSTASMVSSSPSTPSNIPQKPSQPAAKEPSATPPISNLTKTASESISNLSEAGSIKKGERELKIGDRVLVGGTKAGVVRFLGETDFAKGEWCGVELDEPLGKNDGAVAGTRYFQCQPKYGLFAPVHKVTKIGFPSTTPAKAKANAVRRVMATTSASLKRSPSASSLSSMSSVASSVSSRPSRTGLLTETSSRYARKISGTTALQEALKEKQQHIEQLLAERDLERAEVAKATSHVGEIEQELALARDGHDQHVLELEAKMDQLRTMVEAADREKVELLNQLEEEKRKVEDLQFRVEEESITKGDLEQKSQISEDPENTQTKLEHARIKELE

As usually defined, the Kd is the concentration at which binding is half-saturated. In the case of “CLIP-170 N-terminal fragment H2 (H2 1-481) (from UniProt P30622 1-481) (domain or fragment)”, the dissociation constant Kd stood at 10 µM and the percent of H2 in the pellet with F-actin (self-pelleting subtracted) worked out at 26%.
